Numbering of substitutions follows the chain as printed.
B1: humanized MP1 antibody VH8/VL2 (antibody, V domains shown)
VH: QVQLVESGGGVVQPGRSLRLSCAASGITFSSYWMNWVRQAPGKGLEWVAQIRNKPYNYEKYYAQSVKGRFTISRDDSKSTLYLQMSSLRAEDTAVYYCAWAMITSDGYAMDYWGQGTLVTVSS
VL: DIVMTQSPDSLAVSLGERATISCKSSQSVLLSSNQKNYLAWYQQKPGQPPKLLIYWASTRESGVPDRFSGSGSGTEFTLTISSLQAEDVAVYYCQQSFSYPLTFGQGTKLEIK
notes: tested as ExpiCHO-S culture solution
B2: humanized MP1 antibody VH4/VL2 (antibody, V domains shown)
VH: EVKVVESGGGLVQPGGSLRLSCAASGITFSDYWMNWVRQAPGKGLEWVAQIRNKPYNYETYYSNSVKGRFTISRDDAKSSVYLQMSSLRAEDTAVYYCTWAMITSDGYAMDYWGQGTLVTVSS
VL: B1 VL
notes: as for B1
B3: humanized MP1 antibody VH1/VL1 (antibody, V domains shown)
VH: B2 VH with G16R, A23T, A49G, N64Q, A77S, S80I, V81A, R89K, A90T
VL: B1 VL with V29L, L84V, S97C
notes: as for B1
B4: humanized MP1 antibody VH8/VL8 (antibody, V domains shown)
VH: B1 VH
VL: DIVMTQSPLSLPVTPGEPASISCRSSQSLLLSSNQKNYLAWYLQKPGQSPQLLIYWGSTRESGVPDRFSGSGSGTDFTLKISRVEAEDVGVYYCQQSFSYPLTFGQGTKLEIK
notes: as for B1
B5: humanized MP1 antibody VH7/VL5 (antibody, V domains shown)
VH: B2 VH with E1Q, L11V, G16R, A77S, S80T
VL: EIVLTQSPGTLSLSPGERATLSCRASQSVLLSSNQKNYLAWYQQKPGQAPRLLIYWASSRETGIPDRFSGSGSGTDFTLTISRLEPEDFAVYYCQQSFSYPLTFGQGTKLEIK
notes: as for B1
B6: humanized MP1 antibody VH8/VL4 (antibody, V domains shown)
VH: B1 VH
VL: B5 VL with L4M, A25S, V29L, S59T, T62S, L84V, S97C
notes: as for B1
B7: humanized MP1 antibody VH1/VL2 (antibody, V domains shown)
VH: B2 VH with G16R, A23T, A49G, N64Q, A77S, S80I, V81A, R89K, A90T
VL: B1 VL
notes: as for B1
B8: humanized MP1 antibody VH8/VL3 (antibody, V domains shown)
VH: B1 VH
VL: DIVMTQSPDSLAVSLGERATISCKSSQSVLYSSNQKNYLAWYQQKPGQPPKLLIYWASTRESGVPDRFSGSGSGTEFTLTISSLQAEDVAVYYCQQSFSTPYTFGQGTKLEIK
notes: as for B1
B9: humanized MP1 antibody VH9/VL2 (antibody, V domains shown)
VH: B1 VH with I27F, N35H, Q50V, N53Y, N57G, Y58S, M110F
VL: B1 VL
notes: as for B1
B10: humanized MP1 antibody VH4/VL5 (antibody, V domains shown)
VH: B2 VH
VL: B5 VL
notes: as for B1
B11: humanized MP1 antibody VH4/VL4 (antibody, V domains shown)
VH: B2 VH
VL: B5 VL with L4M, A25S, V29L, S59T, T62S, L84V, S97C
notes: as for B1
B12: humanized MP1 antibody VH7/VL3 (antibody, V domains shown)
VH: B2 VH with E1Q, L11V, G16R, A77S, S80T
VL: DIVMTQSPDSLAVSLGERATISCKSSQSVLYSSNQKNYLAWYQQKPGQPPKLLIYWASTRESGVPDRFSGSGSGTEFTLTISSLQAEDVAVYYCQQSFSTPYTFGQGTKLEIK
notes: as for B1
B13: humanized MP1 antibody VH7/VL4 (antibody, V domains shown)
VH: B2 VH with E1Q, L11V, G16R, A77S, S80T
VL: B5 VL with L4M, A25S, V29L, S59T, T62S, L84V, S97C
notes: as for B1
B14: humanized MP1 antibody VH1/VL5 (antibody, V domains shown)
VH: B2 VH with G16R, A23T, A49G, N64Q, A77S, S80I, V81A, R89K, A90T
VL: B5 VL
notes: as for B1
B15: humanized MP1 antibody VH8/VL5 (antibody, V domains shown)
VH: B1 VH
VL: B5 VL
notes: as for B1
B16: humanized MP1 antibody VH8/VL6 (antibody, V domains shown)
VH: B1 VH
VL: B5 VL with N34S, E61A, Y100S, L102Y
notes: as for B1
B17: humanized MP1 antibody VH8/VL1 (antibody, V domains shown)
VH: B1 VH
VL: B1 VL with V29L, L84V, S97C
notes: as for B1
B18: humanized MP1 antibody VH1/VL4 (antibody, V domains shown)
VH: B2 VH with G16R, A23T, A49G, N64Q, A77S, S80I, V81A, R89K, A90T
VL: B5 VL with L4M, A25S, V29L, S59T, T62S, L84V, S97C
notes: as for B1
B19: humanized MP1 antibody VH4/VL8 (antibody, V domains shown)
VH: B2 VH
VL: B4 VL
notes: as for B1
B20: humanized MP1 antibody VH4/VL7 (antibody, V domains shown)
VH: B2 VH
VL: B4 VL with G57A, S97C
notes: as for B1
B21: MP1 monoclonal antibody (antibody, V domains shown)
VH: EVKVDETGGGLVQPGRPMKLSCVVSGITFSDYWMNWVRQSPEKGLEWVAQIRNKPYNYETYYSNSVKGRFTISRDDSKSSVYLQMNNLRAEDMGIYYCTWAMITSDGYAMDYWGQGTSVTVSS
VL: DIVMSQSPSSLAVSVGEKVTLICKSSQSLLLSSNQKNYLAWYQQKPGQSPKLLIYWASTRESGVPDRFTGSGSGTDFTLTINSVKAEDLAVYYCQQCFSYPLTFGAGTKLELK
notes: also called mouse antibody MP1; MP1 Ab

Legend:
[1] = biological target: T1, MUC1 (Mucin-1) as expressed by human cancer cell lines (human, UniProt P15941 24-1255); experiment: flow cytometry, Capan-2 cells stained with transient-expression culture solution; positive rate against the negative control
T1 construct: whole, on cells; Endogenous antigen on the cell surface (flow cytometry) or in cell lysates (immunoprecipitation, western blot); also called MUC1 antigen; antigen recognized by the MP1 monoclonal antibody

[2] = biological target: T1, MUC1 (Mucin-1) as expressed by human …; experiment: flow cytometry, SiHa cells; grade = percent MP1 positive cells (+: 20-30%)
Procedure: The MP1 monoclonal antibody of the present invention was added to the cultured various cancer cells, respectively, and they were reacted at 4° C. for 30 minutes and then washed with PBS, and FITC-conjugated goat anti mouse IgG (Jackson ImmunoResearch, USA) was added and they were cultured at 4° C. for 15 minutes. They were washed with PBS again, and then were analyzed with FACS caliber (Becton Dickinson, USA) to confirm the reactivity of the MP1 antibody in various solid cancer cell lines (Table 9).

T1 sequence (P15941 24-1255): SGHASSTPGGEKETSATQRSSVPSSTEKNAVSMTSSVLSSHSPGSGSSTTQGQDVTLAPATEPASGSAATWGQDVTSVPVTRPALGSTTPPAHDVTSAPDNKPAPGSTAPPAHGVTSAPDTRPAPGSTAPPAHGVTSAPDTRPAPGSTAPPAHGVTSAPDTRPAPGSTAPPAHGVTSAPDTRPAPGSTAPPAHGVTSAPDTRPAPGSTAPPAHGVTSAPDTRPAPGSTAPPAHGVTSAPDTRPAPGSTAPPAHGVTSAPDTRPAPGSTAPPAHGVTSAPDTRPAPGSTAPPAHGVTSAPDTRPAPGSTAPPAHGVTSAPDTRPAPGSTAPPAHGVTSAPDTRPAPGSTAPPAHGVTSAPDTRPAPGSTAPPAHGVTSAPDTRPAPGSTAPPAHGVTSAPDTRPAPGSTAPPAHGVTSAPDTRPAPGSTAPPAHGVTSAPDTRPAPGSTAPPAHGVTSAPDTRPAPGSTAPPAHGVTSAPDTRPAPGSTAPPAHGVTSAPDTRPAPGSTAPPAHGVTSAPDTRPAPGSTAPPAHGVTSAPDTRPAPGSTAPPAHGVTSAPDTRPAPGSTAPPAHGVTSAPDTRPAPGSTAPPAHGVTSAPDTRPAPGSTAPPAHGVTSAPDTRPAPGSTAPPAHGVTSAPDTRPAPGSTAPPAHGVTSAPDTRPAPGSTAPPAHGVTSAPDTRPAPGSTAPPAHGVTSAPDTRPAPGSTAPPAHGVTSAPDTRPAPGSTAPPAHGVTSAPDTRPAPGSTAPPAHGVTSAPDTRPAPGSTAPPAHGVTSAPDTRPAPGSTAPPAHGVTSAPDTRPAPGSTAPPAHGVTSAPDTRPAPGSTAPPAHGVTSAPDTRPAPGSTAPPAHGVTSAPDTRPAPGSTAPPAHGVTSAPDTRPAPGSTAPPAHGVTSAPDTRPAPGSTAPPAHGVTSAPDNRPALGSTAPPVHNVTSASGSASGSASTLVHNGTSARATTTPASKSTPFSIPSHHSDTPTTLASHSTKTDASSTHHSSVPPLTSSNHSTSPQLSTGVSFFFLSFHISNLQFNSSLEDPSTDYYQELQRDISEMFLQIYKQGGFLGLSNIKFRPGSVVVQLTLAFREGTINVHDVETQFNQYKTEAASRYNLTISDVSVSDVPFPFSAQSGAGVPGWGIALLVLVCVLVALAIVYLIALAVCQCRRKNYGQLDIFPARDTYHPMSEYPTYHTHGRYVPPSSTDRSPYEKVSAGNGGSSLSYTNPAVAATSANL

| Binder | Capan-2 cell surface binding (%) [1] [%] | binding result [2] |
| --- | --- | --- |
| B1 | 11.4 |  |
| B2 | 7.2 |  |
| B3 | 7.95 |  |
| B4 | 7.16 |  |
| B5 | 10.2 |  |
| B6 | 15.6 |  |
| B7 | 13.5 |  |
| B8 | 28.5 |  |
| B9 | 7.04 |  |
| B10 | 16.9 |  |
| B11 | 18.1 |  |
| B12 | 11.5 |  |
| B13 | 12.7 |  |
| B14 | 27.2 |  |
| B15 | 6.61 |  |
| B16 | 9.97 |  |
| B17 | 6.65 |  |
| B18 | 15.8 |  |
| B19 | 11.4 |  |
| B20 | 11 |  |
| B21 |  | binds |
